For this assay, the target named is human coxsackie virus B adenovirus receptor (CAR) expressed on CHO cells (CHO-hCAR) (human) (UniProt P78310). Kind of assay: cell-based or functional assay.
Chain of UniProt P78310 (P78310 20-365): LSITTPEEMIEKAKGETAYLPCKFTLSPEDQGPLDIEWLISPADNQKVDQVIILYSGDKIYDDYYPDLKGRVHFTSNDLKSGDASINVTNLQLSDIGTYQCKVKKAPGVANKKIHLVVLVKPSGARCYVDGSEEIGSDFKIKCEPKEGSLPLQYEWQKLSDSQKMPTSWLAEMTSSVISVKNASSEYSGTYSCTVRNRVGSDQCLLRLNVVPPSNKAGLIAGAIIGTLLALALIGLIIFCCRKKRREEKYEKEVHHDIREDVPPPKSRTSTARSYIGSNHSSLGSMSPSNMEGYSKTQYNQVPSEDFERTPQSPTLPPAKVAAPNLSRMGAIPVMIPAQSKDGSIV

On to “HMG-PB/Fiber complex (HMG-PB plus Fiber protein) (from UniProt P12538 1-571; P11818 1-581)”, for which the luciferase reporter plasmid delivery (luciferase gene expression) in CHO-hCAR against parental CHO cells was 6 times.

The values are drawn from patent US20090155853A1.
